Test results: publication PMC10397247
Like-named read-outs stand apart in the source and are kept apart here.

T1: P2-AA-1HGe-A
T1 chain: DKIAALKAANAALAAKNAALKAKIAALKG

T2: P2-AA-1HGe-D
T2 chain: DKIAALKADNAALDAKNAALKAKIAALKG

T3: P2-AA-1HGe-M
T3 chain: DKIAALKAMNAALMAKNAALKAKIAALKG

T4: P2-AA-1HGe-Q
T4 chain: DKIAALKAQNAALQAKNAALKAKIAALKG

T5: P2-AA-1HGe-T
T5 chain: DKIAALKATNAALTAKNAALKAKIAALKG

T6: P2-AA
T6 chain: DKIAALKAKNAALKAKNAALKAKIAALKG

T7: 4H2859-bA
T7 chain: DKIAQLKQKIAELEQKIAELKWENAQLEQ

T8: 4H2931-bA
T8 chain: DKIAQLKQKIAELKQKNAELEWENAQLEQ

T9: 4H3041-bA
T9 chain: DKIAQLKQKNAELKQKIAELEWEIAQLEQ

T10: 4H3297-bA
T10 chain: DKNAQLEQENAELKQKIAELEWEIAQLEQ

T11: 4H3364-bA
T11 chain: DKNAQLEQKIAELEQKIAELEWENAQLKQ

T12: 4H3381-bA
T12 chain: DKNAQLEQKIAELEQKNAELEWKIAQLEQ

T13: 4H349-bA
T13 chain: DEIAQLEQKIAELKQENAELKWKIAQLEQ

T14: 4H56-bA
T14 chain: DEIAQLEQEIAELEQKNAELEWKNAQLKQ

T15: 4H730-bA
T15 chain: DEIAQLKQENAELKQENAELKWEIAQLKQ

T16: 4H796-bA
T16 chain: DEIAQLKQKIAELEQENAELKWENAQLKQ

T17: 4H932-bA
T17 chain: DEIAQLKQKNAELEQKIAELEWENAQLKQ

T18: 4H949-bA
T18 chain: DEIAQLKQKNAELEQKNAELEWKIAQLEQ


Columns and labels:
P2-AA-1HGe-A = target: T1, P2-AA-1HGe-A; test: two-hybrid library CCmax; conditions: mean of both orientations;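 also: natural log of median RNA to DNA barcode read ratio; higher means stronger binding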
P2-AA-1HGe-D = target: T2, P2-AA-1HGe-D; test: two-hybrid library CCmax; conditions: mean of both orientations;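 also: natural log of median RNA to DNA barcode read ratio; higher means stronger binding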
P2-AA-1HGe-M = target: T3, P2-AA-1HGe-M; test: two-hybrid library CCmax; conditions: mean of both orientations;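 also: natural log of median RNA to DNA barcode read ratio; higher means stronger binding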
P2-AA-1HGe-Q = target: T4, P2-AA-1HGe-Q; test: two-hybrid library CCmax; conditions: mean of both orientations;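 also: natural log of median RNA to DNA barcode read ratio; higher means stronger binding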
P2-AA-1HGe-T = target: T5, P2-AA-1HGe-T; test: two-hybrid library CCmax;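 also: natural log of median RNA to DNA barcode read ratio; higher means stronger binding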
P2-AA = target: T6, P2-AA; test: two-hybrid library CCmax; conditions: mean of both orientations;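 also: natural log of median RNA to DNA barcode read ratio; higher means stronger binding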
4H2859-bA = target: T7, 4H2859-bA; test: two-hybrid library CCNG1
4H2931-bA = target: T8, 4H2931-bA; test: two-hybrid library CCNG1
4H3041-bA = target: T9, 4H3041-bA; test: two-hybrid library CCNG1
4H3297-bA = target: T10, 4H3297-bA; test: two-hybrid library CCNG1
4H3364-bA = target: T11, 4H3364-bA; test: two-hybrid library CCNG1
4H3381-bA = target: T12, 4H3381-bA; test: two-hybrid library CCNG1
4H349-bA = target: T13, 4H349-bA; test: two-hybrid library CCNG1
4H56-bA = target: T14, 4H56-bA; test: two-hybrid library CCNG1
4H730-bA = target: T15, 4H730-bA; test: two-hybrid library CCNG1
4H796-bA = target: T16, 4H796-bA; test: two-hybrid library CCNG1
4H932-bA = target: T17, 4H932-bA; test: two-hybrid library CCNG1
4H949-bA = target: T18, 4H949-bA; test: two-hybrid library CCNG1

Row | Binder | interaction score (P2-AA-1HGe-A) | interaction score (P2-AA-1HGe-D) | interaction score (P2-AA-1HGe-M) | interaction score (P2-AA-1HGe-Q) | interaction score (P2-AA-1HGe-T; mean of both orientations) | interaction score (P2-AA) | interaction score (P2-AA-1HGe-T) | interaction score (4H2859-bA) | interaction score (4H2931-bA) | interaction score (4H3041-bA) | interaction score (4H3297-bA) | interaction score (4H3364-bA) | interaction score (4H3381-bA) | interaction score (4H349-bA) | interaction score (4H56-bA) | interaction score (4H730-bA) | interaction score (4H796-bA) | interaction score (4H932-bA) | interaction score (4H949-bA)
1 | DEIAALEAQNAALQAENAALEAEIAALEG [P1-AA-1HGe-Q] | 2.14 | 1.67 | 2.05 | 2.11 | 2.21 | 1.75 | – | – | – | – | – | – | – | – | – | – | – | – | –
2 | DKIAQLKQKIAELEQKIAELKWENAQLEQ [4H2859-bA] | – | – | – | – | – | – | – | 0.951 | -0.145 | 0.532 | -0.389 | 0.621 | -1.02 | -1.25 | 0.529 | -1.15 | -0.855 | -0.912 | -1.6

Further lines, results first:

Row | interaction score (P2-AA-1HGe-A) | interaction score (P2-AA-1HGe-D) | interaction score (P2-AA-1HGe-M) | interaction score (P2-AA-1HGe-Q) | interaction score (P2-AA-1HGe-T; mean of both orientations) | interaction score (P2-AA) | interaction score (P2-AA-1HGe-T) | interaction score (4H2859-bA) | interaction score (4H2931-bA) | interaction score (4H3041-bA) | interaction score (4H3297-bA) | interaction score (4H3364-bA) | interaction score (4H3381-bA) | interaction score (4H349-bA) | interaction score (4H56-bA) | interaction score (4H730-bA) | interaction score (4H796-bA) | interaction score (4H932-bA) | interaction score (4H949-bA) | Binder
3 | 1.81 | 1.63 | 2.01 | 2.06 | – | 2.03 | 2.01 | – | – | – | – | – | – | – | – | – | – | – | – | DEIAALEASNAALSAENAALEAEIAALEG [P1-AA-1HGe-S]
4 | 2.18 | 1.17 | 1.53 | 2.05 | 2 | 2.07 | – | – | – | – | – | – | – | – | – | – | – | – | – | DEIAALEATNAALTAENAALEAEIAALEG [P1-AA-1HGe-T]
